Laboratory results as given in publication PMC12846707.

How the values were obtained:
[1] = target: Recombinant C4b β chain (pig); experiment: SPR; Biacore 8K, single-cycle; C4bα and C4bβ covalently immobilised on CM5 chip (about 1500 RU); CR1-like fragments or mutant as mobile phase, 1.56 × 10^-2 to 4 μM; 25 °C; 10 mM HEPES pH 7.4, 150 mM NaCl, 0.05% Tween-20; apparent KD = kd/ka
[2] = target: Recombinant C4b α chain (pig); experiment: as above

For “118I mutant of CR1-like CCPs 1-3 (domain or fragment)”, the Kd [1] was 1200 nM and the Kd [2] was 271 nM.
